Starred links: 1 amine or outer side, 2 acyl side, 3 side chain; linkers in the order of their positions; H or OH if unused. Non-standard residues stand in square brackets, D forms with d. Groups on a side chain read outwards from the residue. *: point of attachment. Gal = N6-(4-(galactopyranosyloxy)butanoyl) on the lysine side chain; C18 diacid = O=C(O)CCCCCCCCCCCCCCCCC(=O)*; Dip = N[C@H](C(=O)O)C(c1ccccc1)c1ccccc1; γGlu = O=C(O)[C@H](CCC(=O)[*:2])N[*:1]; Palmitoyl = CCCCCCCCCCCCCCCC(=O)*; β3hF = N[C@H](CC(=O)O)Cc1ccccc1; 4Amb = NCc1ccc(C(=O)O)cc1; Isovaleryl = CC(C)CC(=O)*; NMeA = CN[C@@H](C)C(=O)O; AEEA = NCCOCCOCC(=O)O; Acryloyl = C=CC(=O)*; Ahx = NCCCCCC(=O)O
T1: human ferroportin (SLC40A1) fused in frame with GFP, stably expressed in HEK293 cells (human, UniProt Q9NP59 1-571)
T1 sequence (looked up): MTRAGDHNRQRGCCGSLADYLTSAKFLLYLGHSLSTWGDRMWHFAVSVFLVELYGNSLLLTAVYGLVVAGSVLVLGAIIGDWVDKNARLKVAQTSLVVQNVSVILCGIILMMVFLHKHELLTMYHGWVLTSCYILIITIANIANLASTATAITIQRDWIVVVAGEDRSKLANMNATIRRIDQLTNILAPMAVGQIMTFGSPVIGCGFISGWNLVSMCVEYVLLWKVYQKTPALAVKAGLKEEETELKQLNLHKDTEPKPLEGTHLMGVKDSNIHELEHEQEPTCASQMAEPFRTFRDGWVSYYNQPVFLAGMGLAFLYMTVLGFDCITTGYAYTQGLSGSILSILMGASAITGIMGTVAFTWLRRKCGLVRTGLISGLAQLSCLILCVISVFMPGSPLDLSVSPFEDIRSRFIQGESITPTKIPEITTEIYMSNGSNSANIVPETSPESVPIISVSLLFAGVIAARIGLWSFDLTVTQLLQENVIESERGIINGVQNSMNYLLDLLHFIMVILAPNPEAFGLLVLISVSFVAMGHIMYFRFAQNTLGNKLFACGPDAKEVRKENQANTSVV

B1: Seq. No. 553 (peptide)
peptide: Isovaleryl-ETHK(Acryloyl)PCI[dK][β3hF]K([Ahx-Palmitoyl])[dK]C-NH2
modifications: not fully specified (bridges); cysteine pairing not given here
B2: Seq. No. 554 (peptide)
peptide: Isovaleryl-ETH[Dip]K(Acryloyl)CI[dK][β3hF]K([Ahx-Palmitoyl])[dK]C-NH2
modifications: not fully specified (bridges); cysteine pairing not given here
B3: Seq. No. 555 (peptide)
peptide: Isovaleryl-ETH[Dip]PC[dK](Acryloyl)[dK][β3hF]K([Ahx-Palmitoyl])[dK]C-NH2
modifications: not fully specified (bridges); cysteine pairing not given here
B4: Seq. No. 556 (peptide)
peptide: Isovaleryl-ETH[Dip]PCI[dK]K(Acryloyl)K([Ahx-Palmitoyl])[dK]C-NH2
modifications: not fully specified (bridges); cysteine pairing not given here
B5: Seq. No. 557 (peptide)
peptide: XXTHXPCIXXXC
modifications: not fully specified; [Isovaleric Acid]-[Dap]-T-H-[Dpa]-P-C-I-[Lys(1PEG2_1PEG2_Ahx_C18_Diacid)]-[bhPhe]-[(D)Lys]-C-NH2
B6: Seq. No. 558 (peptide)
peptide: Isovaleryl-ETH[Dip]SCIK([AEEA-AEEA-γGlu-C18 diacid])[β3hF][dK]C-NH2
modifications: not fully specified (bridges); cysteine pairing not given here
B7: Seq. No. 560 (peptide)
peptide: Isovaleryl-ETH[Dip]PC[dK](Gal)K([AEEA-AEEA-Ahx-C18 diacid])[β3hF][dK]C-NH2
modifications: not fully specified (bridges); cysteine pairing not given here
B8: Seq. No. 561 (peptide)
peptide: Isovaleryl-ETH[Dip]PCK(Gal)K([AEEA-AEEA-Ahx-C18 diacid])[β3hF][dK]C-NH2
modifications: not fully specified (bridges); cysteine pairing not given here
B9: Seq. No. 562 (peptide)
peptide: {Cyclohexanoic Acid}-ETH[Dip]PCK([AEEA-AEEA-γGlu-C18 diacid])[β3hF][dK]C-NH2
modifications: not fully specified (bridges); cysteine pairing not given here
B10: Seq. No. 563 (peptide)
peptide: XETHXPCIXXXC
modifications: not fully specified; [Isovaleric Acid]-E-T-H-[Dpa]-P-C-I-[(D)Lys]-[bhPhe]-[Lys(1PEG2_1PEG2_IsoGlu_C18_Diacid)]-C-OH
B11: Seq. No. 564 (peptide)
peptide: XETXXPCIXXXC
modifications: not fully specified; [Isovaleric Acid]-E-T-[N-(Imidazolethyl)Gly]-[Dpa]-P-C-I-[Lys(1PEG2_1PEG2_Ahx_C18_Diacid)]-[bhPhe]-[(D)Lys]-C-NH2
B12: Seq. No. 565 (peptide)
peptide: XEXHXPCIXXXC
modifications: not fully specified; [Isovaleric Acid]-E-[N-(hydroxyethyl)Gly]-H-[Dpa]-P-C-I-[Lys(1PEG2_1PEG2_Ahx_C18_Diacid)]-[bhPhe]-[(D)Lys]-C-NH2
B13: Seq. No. 566 (peptide)
peptide: Isovaleryl-ETH[Dip]PC[4Amb][β3hF]K([Ahx-Palmitoyl])[dK]C-NH2
modifications: not fully specified (bridges); cysteine pairing not given here
B14: Seq. No. 567 (peptide)
peptide: Isovaleryl-ETH[Dip][NMeA]CI[dK][β3hF]K([Ahx-Palmitoyl])[dK]C-NH2
modifications: not fully specified (bridges); cysteine pairing not given here
B15: Seq. No. 568 (peptide)
peptide: Isovaleryl-ETH[Dip]PCI[dK]LK([Ahx-Palmitoyl])[dK]C-NH2
modifications: not fully specified (bridges); cysteine pairing not given here
B16: Seq. No. 569 (peptide)
peptide: Isovaleryl-ETH[Dip]LCI[dK][β3hF]K([Ahx-Palmitoyl])[dK]C-NH2
modifications: not fully specified (bridges); cysteine pairing not given here
B17: Seq. No. 570 (peptide)
peptide: Isovaleryl-ETHLPCI[dK][β3hF]K([Ahx-Palmitoyl])[dK]C-NH2
modifications: not fully specified (bridges); cysteine pairing not given here
B18: Seq. No. 571 (peptide)
peptide: Isovaleryl-ETH[Dip]PC[dK][β3hF]K([Ahx-Palmitoyl])[dK]C-NH2
modifications: not fully specified (bridges); cysteine pairing not given here
B19: Seq. No. 572 (peptide)
peptide: Isovaleryl-ETH[Dip]PCI[dK]AK([Ahx-Palmitoyl])[dK]C-NH2
modifications: not fully specified (bridges); cysteine pairing not given here
B20: Seq. No. 573 (peptide)
peptide: Isovaleryl-ETH[Dip]PCA[dK][β3hF]K([Ahx-Palmitoyl])[dK]C-NH2
modifications: not fully specified (bridges); cysteine pairing not given here
B21: Seq. No. 574 (peptide)
peptide: Isovaleryl-ETH[Dip]ACI[dK][β3hF]K([Ahx-Palmitoyl])[dK]C-NH2
modifications: not fully specified (bridges); cysteine pairing not given here
B22: Seq. No. 575 (peptide)
peptide: Isovaleryl-ETHAPCI[dK][β3hF]K([Ahx-Palmitoyl])[dK]C-NH2
modifications: not fully specified (bridges); cysteine pairing not given here
B23: Seq. No. 577 (peptide)
peptide: Isovaleryl-ETH[Dip]PCCK([AEEA-AEEA-Ahx-C18 diacid])[β3hF][dK]-NH2
modifications: not fully specified (bridges); cysteine pairing not given here

The binders below were run against T1, human ferroportin (SLC40A1) fused in … (assay: cell-based or functional assay).
In the case of B1, the “IC50: FPN internalisation” value is reported as 385 nM.
With B2 the “IC50: FPN internalisation” value was 103 nM.
For B3, the “IC50: FPN internalisation” value was 17.4 nM.
In the case of B4, the “IC50: FPN internalisation” value is reported as 15.4 nM.
For B5, the “IC50: FPN internalisation” value was 14.2 nM.
B6 was tested, and the “IC50: FPN internalisation” value was 39.2 nM.
For B7, the “IC50: FPN internalisation” value was 400 nM.
In the case of B8, the “IC50: FPN internalisation” value is reported as 17.9 nM.
For B9, the “IC50: FPN internalisation” value was 18.4 nM.
In the case of B10, the “IC50: FPN internalisation” value is reported as 1190 nM.
For B11, the “IC50: FPN internalisation” value was 687 nM.
With B12 the “IC50: FPN internalisation” value was 18.7 nM.
B13 was tested, and the “IC50: FPN internalisation” value was 31.8 nM.
For B14, the “IC50: FPN internalisation” value was 30.8 nM.
B15 was tested, and the “IC50: FPN internalisation” value was 11.8 nM.
In the case of B16, the “IC50: FPN internalisation” value is reported as 50.2 nM.
With B17 the “IC50: FPN internalisation” value was 12.7 nM.
With B18 the “IC50: FPN internalisation” value was 31.2 nM.
In the case of B19, the “IC50: FPN internalisation” value is reported as 8.47 nM.
For B20, the “IC50: FPN internalisation” value was 6.47 nM.
For B21, the “IC50: FPN internalisation” value was 10.2 nM.
For B22, the “IC50: FPN internalisation” value was 83 nM.
With B23 the “IC50: FPN internalisation” value was 2 nM.

Source: US20230295259A1 (Protagonist Therapeutics, Inc., priority 2020, published 2023)
